US20210309732A1 (ELIXIRON IMMUNOTHERAPEUTICS HONG KONG, published 2021)

B1: 1D2 SDR mutant HK54F (antibody, IgG1, V domains shown)
VH: QVQLVQSGAEVKKPGASVKVSCEASGYTFTDKYLHWVRQAPGQGLEWMAWINPFSGGTFYAQNFKGRVTVTRDTSINTAYLELTSLRLDDTSTYYCARGRDYYDQGAADLWGQGTMVTVSS
VL: DIQLTQSPSSLSASVGDRVTITCRASQGINSVLAWYQQKPGKAPKLLLYAASKLESGVPSRFSGSGSGTDYTLTISSLQPEDFGTYYCQQYYSPVRTFGQGTKVEIKR
notes: also called X3 F
B2: 1D2 SDR mutant HK54H (antibody, IgG1, V domains shown)
VH: QVQLVQSGAEVKKPGASVKVSCEASGYTFTDKYLHWVRQAPGQGLEWMAWINPHSGGTFYAQNFKGRVTVTRDTSINTAYLELTSLRLDDTSTYYCARGRDYYDQGAADLWGQGTMVTVSS
VL: DIQLTQSPSSLSASVGDRVTITCRASQGINSVLAWYQQKPGKAPKLLLYAASKLESGVPSRFSGSGSGTDYTLTISSLQPEDFGTYYCQQYYSPVRTFGQGTKVEIKR
notes: also called X3 H
B3: 1D2 SDR mutant HK54I (antibody, IgG1, V domains shown)
VH: QVQLVQSGAEVKKPGASVKVSCEASGYTFTDKYLHWVRQAPGQGLEWMAWINPISGGTFYAQNFKGRVTVTRDTSINTAYLELTSLRLDDTSTYYCARGRDYYDQGAADLWGQGTMVTVSS
VL: DIQLTQSPSSLSASVGDRVTITCRASQGINSVLAWYQQKPGKAPKLLLYAASKLESGVPSRFSGSGSGTDYTLTISSLQPEDFGTYYCQQYYSPVRTFGQGTKVEIKR
notes: also called X3 I
B4: 1D2 SDR mutant HK54M (antibody, IgG1, V domains shown)
VH: QVQLVQSGAEVKKPGASVKVSCEASGYTFTDKYLHWVRQAPGQGLEWMAWINPMSGGTFYAQNFKGRVTVTRDTSINTAYLELTSLRLDDTSTYYCARGRDYYDQGAADLWGQGTMVTVSS
VL: DIQLTQSPSSLSASVGDRVTITCRASQGINSVLAWYQQKPGKAPKLLLYAASKLESGVPSRFSGSGSGTDYTLTISSLQPEDFGTYYCQQYYSPVRTFGQGTKVEIKR
notes: also called X3 M
B5: 1D2 SDR mutant HK54N (antibody, IgG1, V domains shown)
VH: QVQLVQSGAEVKKPGASVKVSCEASGYTFTDKYLHWVRQAPGQGLEWMAWINPNSGGTFYAQNFKGRVTVTRDTSINTAYLELTSLRLDDTSTYYCARGRDYYDQGAADLWGQGTMVTVSS
VL: DIQLTQSPSSLSASVGDRVTITCRASQGINSVLAWYQQKPGKAPKLLLYAASKLESGVPSRFSGSGSGTDYTLTISSLQPEDFGTYYCQQYYSPVRTFGQGTKVEIKR
notes: also called X3 N
B6: 1D2 SDR mutant HK54P (antibody, IgG1, V domains shown)
VH: QVQLVQSGAEVKKPGASVKVSCEASGYTFTDKYLHWVRQAPGQGLEWMAWINPPSGGTFYAQNFKGRVTVTRDTSINTAYLELTSLRLDDTSTYYCARGRDYYDQGAADLWGQGTMVTVSS
VL: DIQLTQSPSSLSASVGDRVTITCRASQGINSVLAWYQQKPGKAPKLLLYAASKLESGVPSRFSGSGSGTDYTLTISSLQPEDFGTYYCQQYYSPVRTFGQGTKVEIKR
notes: also called X3 P
B7: 1D2 SDR mutant HK54Q (antibody, IgG1, V domains shown)
VH: QVQLVQSGAEVKKPGASVKVSCEASGYTFTDKYLHWVRQAPGQGLEWMAWINPQSGGTFYAQNFKGRVTVTRDTSINTAYLELTSLRLDDTSTYYCARGRDYYDQGAADLWGQGTMVTVSS
VL: DIQLTQSPSSLSASVGDRVTITCRASQGINSVLAWYQQKPGKAPKLLLYAASKLESGVPSRFSGSGSGTDYTLTISSLQPEDFGTYYCQQYYSPVRTFGQGTKVEIKR
notes: also called X3 Q
B8: 1D2 SDR mutant HK54R (antibody, IgG1, V domains shown)
VH: QVQLVQSGAEVKKPGASVKVSCEASGYTFTDKYLHWVRQAPGQGLEWMAWINPRSGGTFYAQNFKGRVTVTRDTSINTAYLELTSLRLDDTSTYYCARGRDYYDQGAADLWGQGTMVTVSS
VL: DIQLTQSPSSLSASVGDRVTITCRASQGINSVLAWYQQKPGKAPKLLLYAASKLESGVPSRFSGSGSGTDYTLTISSLQPEDFGTYYCQQYYSPVRTFGQGTKVEIKR
notes: also called X3 R
B9: 1D2 SDR mutant HK54S (antibody, IgG1, V domains shown)
VH: QVQLVQSGAEVKKPGASVKVSCEASGYTFTDKYLHWVRQAPGQGLEWMAWINPSSGGTFYAQNFKGRVTVTRDTSINTAYLELTSLRLDDTSTYYCARGRDYYDQGAADLWGQGTMVTVSS
VL: DIQLTQSPSSLSASVGDRVTITCRASQGINSVLAWYQQKPGKAPKLLLYAASKLESGVPSRFSGSGSGTDYTLTISSLQPEDFGTYYCQQYYSPVRTFGQGTKVEIKR
notes: also called X3 S
B10: 1D2 SDR mutant HK54T (antibody, IgG1, V domains shown)
VH: QVQLVQSGAEVKKPGASVKVSCEASGYTFTDKYLHWVRQAPGQGLEWMAWINPTSGGTFYAQNFKGRVTVTRDTSINTAYLELTSLRLDDTSTYYCARGRDYYDQGAADLWGQGTMVTVSS
VL: DIQLTQSPSSLSASVGDRVTITCRASQGINSVLAWYQQKPGKAPKLLLYAASKLESGVPSRFSGSGSGTDYTLTISSLQPEDFGTYYCQQYYSPVRTFGQGTKVEIKR
notes: also called X3 T
B11: 1D2 SDR mutant HK54V (antibody, IgG1, V domains shown)
VH: QVQLVQSGAEVKKPGASVKVSCEASGYTFTDKYLHWVRQAPGQGLEWMAWINPVSGGTFYAQNFKGRVTVTRDTSINTAYLELTSLRLDDTSTYYCARGRDYYDQGAADLWGQGTMVTVSS
VL: DIQLTQSPSSLSASVGDRVTITCRASQGINSVLAWYQQKPGKAPKLLLYAASKLESGVPSRFSGSGSGTDYTLTISSLQPEDFGTYYCQQYYSPVRTFGQGTKVEIKR
notes: also called X3 V
B12: 1D2 SDR mutant HK54W (antibody, IgG1, V domains shown)
VH: QVQLVQSGAEVKKPGASVKVSCEASGYTFTDKYLHWVRQAPGQGLEWMAWINPWSGGTFYAQNFKGRVTVTRDTSINTAYLELTSLRLDDTSTYYCARGRDYYDQGAADLWGQGTMVTVSS
VL: DIQLTQSPSSLSASVGDRVTITCRASQGINSVLAWYQQKPGKAPKLLLYAASKLESGVPSRFSGSGSGTDYTLTISSLQPEDFGTYYCQQYYSPVRTFGQGTKVEIKR
notes: also called X3 W
B13: 1D2 SDR mutant HQ105E (antibody, IgG1, V domains shown)
VH: QVQLVQSGAEVKKPGASVKVSCEASGYTFTDKYLHWVRQAPGQGLEWMAWINPKSGGTFYAQNFKGRVTVTRDTSINTAYLELTSLRLDDTSTYYCARGRDYYDEGAADLWGQGTMVTVSS
VL: DIQLTQSPSSLSASVGDRVTITCRASQGINSVLAWYQQKPGKAPKLLLYAASKLESGVPSRFSGSGSGTDYTLTISSLQPEDFGTYYCQQYYSPVRTFGQGTKVEIKR
notes: also called X7 E
B14: 1D2 SDR mutant HQ105G (antibody, IgG1, V domains shown)
VH: QVQLVQSGAEVKKPGASVKVSCEASGYTFTDKYLHWVRQAPGQGLEWMAWINPKSGGTFYAQNFKGRVTVTRDTSINTAYLELTSLRLDDTSTYYCARGRDYYDGGAADLWGQGTMVTVSS
VL: DIQLTQSPSSLSASVGDRVTITCRASQGINSVLAWYQQKPGKAPKLLLYAASKLESGVPSRFSGSGSGTDYTLTISSLQPEDFGTYYCQQYYSPVRTFGQGTKVEIKR
notes: also called X7 G
B15: 1D2 SDR mutant HQ105L (antibody, IgG1, V domains shown)
VH: QVQLVQSGAEVKKPGASVKVSCEASGYTFTDKYLHWVRQAPGQGLEWMAWINPKSGGTFYAQNFKGRVTVTRDTSINTAYLELTSLRLDDTSTYYCARGRDYYDLGAADLWGQGTMVTVSS
VL: DIQLTQSPSSLSASVGDRVTITCRASQGINSVLAWYQQKPGKAPKLLLYAASKLESGVPSRFSGSGSGTDYTLTISSLQPEDFGTYYCQQYYSPVRTFGQGTKVEIKR
notes: also called X7 L

Target: T1, recombinant human GM-CSF (human, UniProt P04141 18-144)
T1 construct: also called rhGM-CSF; CSF2
T1 sequence (P04141 18-144 limits assumed): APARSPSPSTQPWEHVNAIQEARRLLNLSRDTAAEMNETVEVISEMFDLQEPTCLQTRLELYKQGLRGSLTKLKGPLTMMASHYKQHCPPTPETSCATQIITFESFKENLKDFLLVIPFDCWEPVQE
Assay: ELISA on coated rhGM-CSF, UBA relative to 1D2
Source text: Some of the residues in the CDRs are essential for epitope binding affinity and/or specificity. A number of computational methods were developed to detect these functional residues, generally known as ‘specificity-determining resides’ (SDRs). […] Based on the analysis, 7 amino acid residues in VH and 3 amino acid residues in VL were selected as the SDRs. The residues are labeled X₁ to X₁₀ for the ease of reference. The SDRs on VH are: Heavy chain D31 (HD31) (X₁), HK32 (X₂), HK54(X₃), HR100 (X₄), HY102 (X₅), HY103 (X₆) and HQ105 (X₇). The SDRs on VL are Light chain V32 (LV32) (X₈), LP94 (X₉) and LV95 (X₁₀). The SDRs were subsequently mutated by site-directed mutagenesis to other amino acids to generate mutant VH or VL clones. HEK293 cells were co-transfected with a vector encoding a mutant VH paired with a vector encoding a wild type VL or a vector encoding a wild type VH paired with a vector encoding a mutant VL. The antibody clones were harvested from the culture medium. The binding affinity of each antibody clone to human GM-CSF was tested by ELISA. The ELISA was done according to the following procedures. ELISA plate was coated with 50 μl of rhGM-CSF at 1 μg/mL. The plate was washed with 200 μl PBST for three times, followed by blocking with 1% BSA for 1 hour at room temperature. The antibody clones to be tested were diluted at 1:12000. 100 μl of the diluted antibodies were added to the cell at 100 μl/well. The plate was incubated at room temperature for 1 hour. The plate was then washed and incubated with 1:5000 diluted goat-anti-human secondary antibody conjugated with HRP at room temperature for one hour. The ELISA assay was developed with 100 μl developing buffer containing H₂O₂-Amplx Red per well in the dark for 5 min and the fluorescence intensity was read at Ex.530/Em.590 nm, with cutoff at 570 nm. The Unit Binding Activity (UBA) of each sample was calculated as the fluorescence signal/antibody clone dilution factor.

Row | Binder | binding affinity % of 1D2
1 | B1 | 67%
2 | B2 | 74%
3 | B3 | 100%
4 | B4 | 106%
5 | B5 | 73%
6 | B6 | 85%
7 | B7 | 93%
8 | B8 | 98%
9 | B9 | 82%
10 | B10 | 101%
11 | B11 | 74%
12 | B12 | 88%
13 | B13 | 173%
14 | B14 | 105%
15 | B15 | 63%
